T1: human ANGPTL3 protein (SEQ ID No. 19) (human, UniProt Q9Y5C1 18-460, limits assumed)
T1 construct: also called ANGPTL3-FLD; protein (immunogen)
T1 sequence: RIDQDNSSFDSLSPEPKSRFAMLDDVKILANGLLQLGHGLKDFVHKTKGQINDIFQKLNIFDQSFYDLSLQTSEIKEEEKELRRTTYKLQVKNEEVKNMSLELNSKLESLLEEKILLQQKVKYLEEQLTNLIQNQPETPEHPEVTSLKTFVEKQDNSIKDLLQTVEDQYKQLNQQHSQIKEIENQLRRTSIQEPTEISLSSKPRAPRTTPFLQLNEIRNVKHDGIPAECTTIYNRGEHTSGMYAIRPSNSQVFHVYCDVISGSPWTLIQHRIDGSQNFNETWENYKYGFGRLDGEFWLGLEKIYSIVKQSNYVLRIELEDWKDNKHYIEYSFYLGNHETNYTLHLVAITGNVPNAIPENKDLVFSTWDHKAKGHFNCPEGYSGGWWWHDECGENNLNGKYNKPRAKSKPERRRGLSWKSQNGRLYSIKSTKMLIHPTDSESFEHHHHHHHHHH

B1: anti-ANGPTL3 monoclonal antibody (prepared in Example 2) (antibody, IgG1, V domains shown)
VH: QVQLKESGPGLVAPSQSLSITCTVSGFSLTTYGVSWVRQPPGKGLEWLGVIWGDGNTNYHSALISRLSISKDNSKSQVFLKLNSLQTDDTATYYCAKGGPYGNYVPFDYWGQGTTLTVSS
VL: DIVLTQSPASLAVSLGQRATISCRASESVDSYGNSFMHWYQQKPGQPPKLLIYRASNLESGIPARFSGSGSRTDFTLTINPVEADDVATYYCQQSDEEPPTFGGGTNLEIK
notes: Recombinant antibody expressed transiently in ExpiCHO-S cells; also called anti-ANGPTL3-FLD mAb; mAb
B2: ANGPTL3-FLD-biotin (ligand)
chain: T1 sequence
modifications: biotin-labeled (sites not given)
notes: also called ANGPTL3-Biotin; Biotin-ANGPTL3-FLD

The target of assay [1] is human ANGPTL3 protein (SEQ ID No. 19) (human) (UniProt Q9Y5C1). In words: indirect ELISA, negative control supernatant, column A (taken as plate-coated ANGPTL3 of SEQ ID No. 19). Background: An ELISA detects its analyte on a solid surface through an enzyme-linked reagent.
Assay [2] deals with T1, human ANGPTL3 protein (SEQ ID No. 19). In words: SPR, Biacore T200, ANGPTL3 amine-coupled on a CM5 chip (852 RU), antibody injected at 6.25-800 nM, 25 °C, HBS-EP. How it is done:
Angptl3 was immobilized on a CM5 sensor chip (Biacore T200, BR18010468 (GE Healthercare)) at 25° C. with HBS-EP as a running buffer (10 mM HEPES, 150 mM NaCl, 3 mM EDTA, 0.05% P20, pH 7.4). Flow cells 1 and 4 were activated on the surface of the sensor chip with fresh and mixed NHS (50 mmol/L) and EDC (200 mmol/L) for 420 s (10 μL/min). Then, Angptl3 diluted in 10 mmol/L NaAC (pH 5.0) waccording tojected into the flow cell 4 to achieve binding of about 852 Response Unit. In addition, Fc1 was set to blank. After the amine coupling reaction, 1 mol/L ethanolamine hydrochloride (pH 8.5) waccording tojected for 420 s to block the remaining active coupling sites on the chip surface.
The detection was carried out at 25° C. with HBS-EP as a running buffer. The anti-ANGPTL3 monoclonal antibody (prepared in Example 2) waccording tojected onto the surfaces of flow cells 1, 2, 3, and 4 as an association stage, and then the running buffer waccording tojected as a dissociation stage.
All data were processed using Biacore T200 evaluation software version 3.1. The flow cell 1 was used as a double reference for the subtractive response unit. For the detection results of the affinity of the anti-ANGPTL3 antibody to the ANGPTL3 protein, refer to FIG. 2.
(Surface plasmon resonance follows binding to a sensor surface in real time, without labels.)

The assay “ANGPTL3-FLD-biotin” concerns the target B2. In words: competitive ELISA: antibody titrated in 0.16 µg/mL ANGPTL3-FLD-biotin, blocking its binding to plate-coated integrin αvβ3. From the text: (§1) Integrin αvβ3 is a key receptor for ANGPTL3-FLD to act on podocytes and mediate podocyte damage. Therefore, in order to evaluate the biological activity of the anti-ANGPTL3 monoclonal antibody, a competitive ELISA experiment was designed to evaluate the activity of the anti-ANGPTL3 monoclonal antibody blocking the interaction between ANGPTL3-FLD and integrin αvβ3. In the competitive experiment of the anti-ANGPTL3 monoclonal antibody blocking the interaction between ANGPTL3-FLD and integrin αvβ3, ANGPTL3-FLD was biotin-labeled, and the lowest saturated concentration of ANGPTL3-FLD-biotin binding to integrin αvβ3 was determined as 0.16 μg/mL by ELISA (as shown in FIG. 3A). The anti-ANGPTL3 monoclonal antibody was serially diluted with 0.16 μg/mL ANGPTL3-FLD-biotin solution as a diluent to obtain a series of concentrations. Theoretically, ANGPTL3-FLD-biotin can saturate integrin αvβ3 on a solid support in the absence of monoclonal antibody. However, when the epitope of ANGPTL3-FLD recognized by the monoclonal antibody overlaps with the epitope of ANGPTL3-FLD binding to integrin αvβ3, the antibody may compete with integrin αvβ3 for binding to ANGPTL3-FLD-biotin, so that ANGPTL3-FLD-biotin cannot bind to integrin αvβ3 on the solid support.
2. Detect a Half-Maximal Inhibitory Concentration of Anti-ANGPTL3-FLD mAb [0098] […]

Assay [3] concerns the target T2, Integrin αvβ3 recombinant protein (R&D, 3050-AV-050) (UniProt P06756 31-992; P05106 27-718).
T2 construct: Bought heterodimer
In words: ELISA: integrin αvβ3 coated at 1 µg/mL, ANGPTL3-FLD-biotin titrated, detected with peroxidase-labeled streptavidin, OD450.
Excerpt: as §1, with “Therefore,” for “Integrin αvβ3 is a key receptor for ANGPTL3-FLD to act on podocytes and mediate podocyte damage. Therefore,”
1. Plot a Curve of the Binding of Integrin αvβ3/ANGPTL3 [0093] […]

T2 sequence (P06756 31-992, chain 1 of 2): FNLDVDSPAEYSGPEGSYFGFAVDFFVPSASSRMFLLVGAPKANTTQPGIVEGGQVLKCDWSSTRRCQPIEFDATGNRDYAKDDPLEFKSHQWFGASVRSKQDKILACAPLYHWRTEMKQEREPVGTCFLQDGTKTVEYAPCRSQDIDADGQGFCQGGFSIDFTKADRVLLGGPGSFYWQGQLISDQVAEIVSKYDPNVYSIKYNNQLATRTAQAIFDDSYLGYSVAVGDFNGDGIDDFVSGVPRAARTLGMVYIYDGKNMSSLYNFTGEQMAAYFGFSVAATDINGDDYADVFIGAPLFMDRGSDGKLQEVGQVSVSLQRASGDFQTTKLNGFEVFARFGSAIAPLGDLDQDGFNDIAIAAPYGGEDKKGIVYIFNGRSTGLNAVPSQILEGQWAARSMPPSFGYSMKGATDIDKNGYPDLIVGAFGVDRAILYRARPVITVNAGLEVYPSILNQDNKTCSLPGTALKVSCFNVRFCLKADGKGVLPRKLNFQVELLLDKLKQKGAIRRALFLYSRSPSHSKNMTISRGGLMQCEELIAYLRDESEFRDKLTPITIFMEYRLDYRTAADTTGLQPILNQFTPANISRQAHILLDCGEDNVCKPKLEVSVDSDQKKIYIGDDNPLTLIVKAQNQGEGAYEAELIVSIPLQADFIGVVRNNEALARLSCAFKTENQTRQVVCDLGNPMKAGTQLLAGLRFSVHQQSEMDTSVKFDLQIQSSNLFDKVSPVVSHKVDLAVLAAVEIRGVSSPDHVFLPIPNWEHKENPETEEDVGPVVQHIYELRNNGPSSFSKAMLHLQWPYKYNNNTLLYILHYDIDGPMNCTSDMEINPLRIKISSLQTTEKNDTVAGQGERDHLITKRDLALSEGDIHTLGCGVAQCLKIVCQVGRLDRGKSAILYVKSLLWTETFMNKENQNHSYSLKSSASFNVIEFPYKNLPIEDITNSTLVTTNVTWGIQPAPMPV
T2 sequence (P05106 27-718, chain 2 of 2): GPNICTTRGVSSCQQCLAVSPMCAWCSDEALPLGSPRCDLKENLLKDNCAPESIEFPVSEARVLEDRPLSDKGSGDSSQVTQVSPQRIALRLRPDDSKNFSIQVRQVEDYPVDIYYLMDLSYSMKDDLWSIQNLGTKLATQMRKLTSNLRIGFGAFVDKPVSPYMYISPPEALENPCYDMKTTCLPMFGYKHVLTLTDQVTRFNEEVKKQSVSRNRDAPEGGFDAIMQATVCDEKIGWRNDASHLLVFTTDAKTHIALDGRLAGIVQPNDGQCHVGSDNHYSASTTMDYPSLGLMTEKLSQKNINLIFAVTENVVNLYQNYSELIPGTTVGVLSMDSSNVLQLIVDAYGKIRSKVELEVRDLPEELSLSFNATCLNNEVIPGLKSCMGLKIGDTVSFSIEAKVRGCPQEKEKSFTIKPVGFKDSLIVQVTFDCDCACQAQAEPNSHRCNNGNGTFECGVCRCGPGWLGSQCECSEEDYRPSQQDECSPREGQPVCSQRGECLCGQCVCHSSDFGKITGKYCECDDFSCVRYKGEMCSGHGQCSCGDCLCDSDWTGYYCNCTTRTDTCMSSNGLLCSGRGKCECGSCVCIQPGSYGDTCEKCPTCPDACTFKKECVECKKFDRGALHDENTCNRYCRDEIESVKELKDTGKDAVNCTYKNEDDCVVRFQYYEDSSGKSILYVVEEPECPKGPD

Negative Control Supernatant had an OD 450 in assay [1] of 0.195 OD450.
In assay [2], B1 displayed a Kd of 84.8 nM, a koff of 0.00142 s⁻¹ and an on-rate constant (kon) of 16700 M⁻¹ s⁻¹. Besides, in the assay with ANGPTL3-FLD-biotin, a half-maximal effect (EC50) was put at 1.57 µg/mL.
In the case of B2, the “EC50 (read off the curve)” value in assay [3] is roughly 0.01 µg/mL.

One may read the Kd as the free concentration of one partner at which half of the binding sites on the other are occupied at equilibrium, for simple one-to-one binding. Lower therefore signals higher affinity. Broadly, the koff is the first-order rate constant of dissociation. Broadly, the kon is a measure of how fast the partners come together. Low values mean slower complex formation, high ones faster complex formation. What is called EC50 is the concentration that produces a half-maximal response. Low readings indicate higher potency in that assay, high ones lower potency in that assay. In general, EC50 (read off the curve) refers to the concentration at which the effect is half-maximal.
